The values that follow come from IntAct's records for PubMed 32296183.

The chains are these.
B1: Ceroid-lipofuscinosis neuronal protein 6 (Homo sapiens), Q9NWW5 (parent)
chain: MEATRRRQHLGATGGPGAQLGASFLQARHGSVSADEAARTAPFHLDLWFYFTLQNWVLDFGRPIAMLVFPLEWFPLNKPSVGDYFHMAYNVITPFLLLKLIERSPRTLPRSITYVSIIIFIMGASIHLVGDSVNHRLLFSGYQHHLSVRENPIIKNLKPETLIDSFELLYYYDEYLGHCMWYIPFFLILFMYFSGCFTASKAESLIPGPALLLVAPSGLYYWYLVTEGQIFILFIFTFFAMLALVLHQKRKRLFLDSNGLFLFSSFALTLLLVALWVAWLWNDPVLRKKYPGVIYVPEPWAFYTLHVSSRH
partner: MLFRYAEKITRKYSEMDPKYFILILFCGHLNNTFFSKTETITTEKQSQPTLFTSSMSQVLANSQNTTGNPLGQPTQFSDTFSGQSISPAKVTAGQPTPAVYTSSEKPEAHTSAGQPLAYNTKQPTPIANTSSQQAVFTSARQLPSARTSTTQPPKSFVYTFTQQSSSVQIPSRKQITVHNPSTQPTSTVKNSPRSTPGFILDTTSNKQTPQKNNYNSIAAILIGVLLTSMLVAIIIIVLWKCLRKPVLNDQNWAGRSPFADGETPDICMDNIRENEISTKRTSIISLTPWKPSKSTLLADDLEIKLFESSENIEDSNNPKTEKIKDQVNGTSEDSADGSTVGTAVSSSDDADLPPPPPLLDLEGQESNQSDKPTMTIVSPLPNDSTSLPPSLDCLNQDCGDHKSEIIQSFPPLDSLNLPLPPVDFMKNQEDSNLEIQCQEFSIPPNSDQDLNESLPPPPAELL
B2: Golgi SNAP receptor complex member 2 (Homo sapiens), O14653 (parent)
chain: MDPLFQQTHKQVHEIQSCMGRLETADKQSVHIVENEIQASIDQIFSRLERLEILSSKEPPNKRQNARLRVDQLKYDVQHLQTALRNFQHRRHAREQQERQREELLSRTFTTNDSDTTIPMDESLQFNSSLQKVHNGMDDLILDGHNILDGLRTQRLTLKGTQKKILDIANMLGLSNTVMRLIEKRAFQDKYFMIGGMLLTCVVMFLVVQYLT
partner: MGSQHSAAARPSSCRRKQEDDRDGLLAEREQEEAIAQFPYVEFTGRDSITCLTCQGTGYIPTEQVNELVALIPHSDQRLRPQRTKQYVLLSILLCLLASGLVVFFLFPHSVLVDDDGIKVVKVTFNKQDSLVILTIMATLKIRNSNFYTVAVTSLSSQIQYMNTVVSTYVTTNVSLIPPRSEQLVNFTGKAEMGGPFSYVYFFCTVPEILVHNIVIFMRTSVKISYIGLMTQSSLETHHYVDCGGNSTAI
B3: Catenin alpha-3 (Homo sapiens), Q9UI47-2 (parent)
chain: MSAETPITLNIDPQDLQVQTFTVEKLLEPLIIQVTTLVNCPQNPSSRKKGRSKRASVLLASVEEATWNLLDKGEKIAQEATVLKDELTASLEEVRKESEALKVSAERFTDDPCFLPKREAVVQAARALLAAVTRLLILADMIDVMCLLQHVSAFQRTFESLKNVANKSDLQKTYQKLGKELENLDYLAFKRQQDLKSPNQRDEIAGARASLKENSPLLHSICSACLEHSDVASLKASKDTVCEEIQNALNVISNASQGIQNMTTPPEPQAATLGSALDELENLIVLNPLTVTEEEIRPSLEKRLEAIISGAALLADSSCTRDLHRERIIAECNAIRQALQDLLSEYMNNAGKKERSNTLNIALDNMCKKTRDLRRQLRKAIIDHVSDSFLDTTVPLLVLIEAAKNGREKEIKEYAAIFHEHTSRLVEVANLACSMSTNEDGIKIVKIAANHLETLCPQIINAALALAARPKSQAVKNTMEMYKRTWENHIHVLTEAVDDITSIDDFLAVSGMFLFF
partner: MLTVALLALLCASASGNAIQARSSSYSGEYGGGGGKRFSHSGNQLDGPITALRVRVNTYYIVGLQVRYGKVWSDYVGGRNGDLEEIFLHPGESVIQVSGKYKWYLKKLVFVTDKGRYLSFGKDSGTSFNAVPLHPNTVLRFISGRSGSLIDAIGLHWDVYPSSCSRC
B4: Golgi SNAP receptor complex member 2 (Homo sapiens), O14653 (parent)
chain: B2 chain
partner: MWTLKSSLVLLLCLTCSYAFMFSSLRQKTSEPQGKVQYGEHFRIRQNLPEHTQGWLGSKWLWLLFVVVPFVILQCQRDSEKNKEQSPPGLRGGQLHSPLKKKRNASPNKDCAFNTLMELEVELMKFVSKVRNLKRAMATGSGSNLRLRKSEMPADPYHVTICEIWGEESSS
B5: Golgi SNAP receptor complex member 2 (Homo sapiens), O14653 (parent)
chain: B2 chain
partner: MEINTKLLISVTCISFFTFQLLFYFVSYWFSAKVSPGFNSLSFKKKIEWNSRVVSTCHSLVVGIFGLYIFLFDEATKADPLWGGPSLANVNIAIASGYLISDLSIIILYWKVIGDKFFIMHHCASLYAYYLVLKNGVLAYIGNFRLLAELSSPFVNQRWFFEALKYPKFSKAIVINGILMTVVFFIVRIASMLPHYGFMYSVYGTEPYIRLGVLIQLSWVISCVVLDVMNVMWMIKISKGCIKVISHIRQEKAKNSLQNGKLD
B6: Golgi SNAP receptor complex member 2 (Homo sapiens), O14653 (parent)
chain: B2 chain
partner: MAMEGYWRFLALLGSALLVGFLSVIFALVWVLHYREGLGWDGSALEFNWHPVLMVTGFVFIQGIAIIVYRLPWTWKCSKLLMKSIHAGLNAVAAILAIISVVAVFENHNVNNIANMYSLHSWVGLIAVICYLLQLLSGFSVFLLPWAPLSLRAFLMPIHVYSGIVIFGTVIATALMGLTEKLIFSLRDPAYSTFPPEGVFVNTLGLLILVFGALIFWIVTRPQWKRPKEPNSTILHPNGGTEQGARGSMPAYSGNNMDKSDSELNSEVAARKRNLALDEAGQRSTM
B7: Catenin alpha-3 (Homo sapiens), Q9UI47-2 (parent)
chain: B3 chain
partner: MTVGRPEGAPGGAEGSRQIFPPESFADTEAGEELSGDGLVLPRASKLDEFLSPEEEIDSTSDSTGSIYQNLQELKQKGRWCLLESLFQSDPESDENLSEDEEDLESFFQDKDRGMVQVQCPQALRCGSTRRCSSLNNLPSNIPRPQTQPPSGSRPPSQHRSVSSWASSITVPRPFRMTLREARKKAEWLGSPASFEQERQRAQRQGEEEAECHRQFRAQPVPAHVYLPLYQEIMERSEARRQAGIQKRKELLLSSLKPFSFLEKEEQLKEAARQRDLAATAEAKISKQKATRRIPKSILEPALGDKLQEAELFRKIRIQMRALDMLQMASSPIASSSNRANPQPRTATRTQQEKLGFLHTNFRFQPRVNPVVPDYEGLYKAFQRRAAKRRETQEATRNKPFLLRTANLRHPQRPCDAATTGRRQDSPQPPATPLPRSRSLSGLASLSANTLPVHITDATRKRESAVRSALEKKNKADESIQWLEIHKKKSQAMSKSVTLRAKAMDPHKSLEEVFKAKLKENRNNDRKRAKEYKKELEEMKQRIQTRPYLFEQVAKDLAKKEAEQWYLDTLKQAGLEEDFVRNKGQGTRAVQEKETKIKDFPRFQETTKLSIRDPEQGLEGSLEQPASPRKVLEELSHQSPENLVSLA
B8: Ceroid-lipofuscinosis neuronal protein 6 (Homo sapiens), Q9NWW5 (parent)
chain: B1 chain
partner: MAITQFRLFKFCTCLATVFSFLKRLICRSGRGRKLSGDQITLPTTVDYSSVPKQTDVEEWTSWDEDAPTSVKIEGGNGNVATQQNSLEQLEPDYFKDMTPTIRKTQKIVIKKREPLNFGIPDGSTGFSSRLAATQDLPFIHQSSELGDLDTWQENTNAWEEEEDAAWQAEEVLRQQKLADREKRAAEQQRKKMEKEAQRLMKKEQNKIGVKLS
B9: Golgi SNAP receptor complex member 2 (Homo sapiens), O14653 (parent)
chain: B2 chain
partner: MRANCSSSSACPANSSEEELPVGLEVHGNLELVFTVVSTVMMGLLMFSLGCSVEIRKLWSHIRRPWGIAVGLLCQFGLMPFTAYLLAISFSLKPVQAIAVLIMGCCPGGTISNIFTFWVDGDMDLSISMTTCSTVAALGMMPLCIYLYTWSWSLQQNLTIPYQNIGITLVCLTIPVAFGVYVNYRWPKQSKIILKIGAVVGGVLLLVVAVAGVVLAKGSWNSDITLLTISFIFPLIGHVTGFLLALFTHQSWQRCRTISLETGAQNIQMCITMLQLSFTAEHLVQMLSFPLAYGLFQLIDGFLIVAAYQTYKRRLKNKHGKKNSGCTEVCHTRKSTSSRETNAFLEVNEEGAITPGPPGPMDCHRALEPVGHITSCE
B10: Catenin alpha-3 (Homo sapiens), Q9UI47-2 (parent)
chain: B3 chain
partner: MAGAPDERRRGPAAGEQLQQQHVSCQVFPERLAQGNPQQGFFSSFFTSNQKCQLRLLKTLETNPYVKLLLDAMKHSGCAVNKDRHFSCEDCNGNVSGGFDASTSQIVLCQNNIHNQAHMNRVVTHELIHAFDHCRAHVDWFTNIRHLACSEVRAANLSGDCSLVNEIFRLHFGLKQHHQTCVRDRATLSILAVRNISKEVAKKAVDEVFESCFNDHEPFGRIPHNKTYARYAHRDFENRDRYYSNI
B11: Catenin alpha-3 (Homo sapiens), Q9UI47-2 (parent)
chain: B3 chain

In one assay the parent is B1. The conditions noted are these: with EVI2B.
In the case of L47F, the “effect of a mutation on the interaction” value is “with no effect”.
As for R6T, the “effect of a mutation on the interaction” value was “with no effect”.
Same read-out and setting: to G123D belongs “with no effect”.

Another assay covers variants of B2. The conditions noted are these: with TMEM106C.
G144W: the “effect of a mutation on the interaction” value was “disrupting interaction strength”.

Another assay covers variants of B3. Conditions: with zg16_human ZG16, O60844.
With V94D, the “effect of a mutation on the interaction” value is given as “disrupting interaction strength”.

The next assay covers variants of B4. Conditions: with FAM209A.
Consider G144W, for which the “effect of a mutation on the interaction” value is “with no effect”.

The variants in another assay derive from B5. Conditions: with tlcd4_human TLCD4, Q96MV1.
With G144W, the “effect of a mutation on the interaction” value is “with no effect”.

Variants of B6 are the subject of a further assay. Conditions: with cybr1_human CYBRD1, Q53TN4.
Turning to G144W, the “effect of a mutation on the interaction” value is “with no effect”.

Variants of B7 are the subject of a further assay. Conditions: with FAM161B.
On to V94D, for which the “effect of a mutation on the interaction” value is recorded as “with no effect”.

The variants in another assay derive from B8. Conditions: with rcas1_human EBAG9, O00559.
R6T: the “effect of a mutation on the interaction” value is given as “with no effect”.
On the same count and under the same terms, next, L47F: “with no effect”; G123D: “with no effect”.

In the next assay the parent is B9. The conditions noted are these: with soat_human SLC10A6, Q3KNW5.
With G144W, the “effect of a mutation on the interaction” value was “with no effect”.

In the next assay the parent is B10. The conditions noted are these: with atp23_human ATP23, Q9Y6H3.
Consider V94D, for which the “effect of a mutation on the interaction” value is on record as “disrupting interaction strength”.

In another assay the parent is B11. Conditions: with katl1_human KATNAL1, Q9BW62.
Chain of katl1_human KATNAL1, Q9BW62 (Q9BW62 whole entry): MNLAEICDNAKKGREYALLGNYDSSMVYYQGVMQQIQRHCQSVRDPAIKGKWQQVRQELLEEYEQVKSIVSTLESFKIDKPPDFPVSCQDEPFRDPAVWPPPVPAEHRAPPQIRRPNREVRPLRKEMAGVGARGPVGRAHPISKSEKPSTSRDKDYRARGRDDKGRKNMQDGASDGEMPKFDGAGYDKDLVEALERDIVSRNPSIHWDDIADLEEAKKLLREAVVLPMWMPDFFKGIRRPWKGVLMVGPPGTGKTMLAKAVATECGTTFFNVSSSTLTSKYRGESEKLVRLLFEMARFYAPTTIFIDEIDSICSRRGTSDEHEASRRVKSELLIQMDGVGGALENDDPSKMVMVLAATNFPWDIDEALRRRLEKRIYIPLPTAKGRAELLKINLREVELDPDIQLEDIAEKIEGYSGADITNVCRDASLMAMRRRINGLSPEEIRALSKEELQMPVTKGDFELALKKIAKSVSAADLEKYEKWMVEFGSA
V94D: the “effect of a mutation on the interaction” value is recorded as “disrupting interaction strength”.

The variants in the next assay derive from B11. The conditions noted are these: with pax6_human PAX6, P26367.
With V94D, the “effect of a mutation on the interaction” value was “with no effect”.

Variants of B11 are the subject of a further assay. The conditions noted are these: with taso2_human TASOR2, Q5VWN6.
Chain of taso2_human TASOR2, Q5VWN6 (Q5VWN6 whole entry): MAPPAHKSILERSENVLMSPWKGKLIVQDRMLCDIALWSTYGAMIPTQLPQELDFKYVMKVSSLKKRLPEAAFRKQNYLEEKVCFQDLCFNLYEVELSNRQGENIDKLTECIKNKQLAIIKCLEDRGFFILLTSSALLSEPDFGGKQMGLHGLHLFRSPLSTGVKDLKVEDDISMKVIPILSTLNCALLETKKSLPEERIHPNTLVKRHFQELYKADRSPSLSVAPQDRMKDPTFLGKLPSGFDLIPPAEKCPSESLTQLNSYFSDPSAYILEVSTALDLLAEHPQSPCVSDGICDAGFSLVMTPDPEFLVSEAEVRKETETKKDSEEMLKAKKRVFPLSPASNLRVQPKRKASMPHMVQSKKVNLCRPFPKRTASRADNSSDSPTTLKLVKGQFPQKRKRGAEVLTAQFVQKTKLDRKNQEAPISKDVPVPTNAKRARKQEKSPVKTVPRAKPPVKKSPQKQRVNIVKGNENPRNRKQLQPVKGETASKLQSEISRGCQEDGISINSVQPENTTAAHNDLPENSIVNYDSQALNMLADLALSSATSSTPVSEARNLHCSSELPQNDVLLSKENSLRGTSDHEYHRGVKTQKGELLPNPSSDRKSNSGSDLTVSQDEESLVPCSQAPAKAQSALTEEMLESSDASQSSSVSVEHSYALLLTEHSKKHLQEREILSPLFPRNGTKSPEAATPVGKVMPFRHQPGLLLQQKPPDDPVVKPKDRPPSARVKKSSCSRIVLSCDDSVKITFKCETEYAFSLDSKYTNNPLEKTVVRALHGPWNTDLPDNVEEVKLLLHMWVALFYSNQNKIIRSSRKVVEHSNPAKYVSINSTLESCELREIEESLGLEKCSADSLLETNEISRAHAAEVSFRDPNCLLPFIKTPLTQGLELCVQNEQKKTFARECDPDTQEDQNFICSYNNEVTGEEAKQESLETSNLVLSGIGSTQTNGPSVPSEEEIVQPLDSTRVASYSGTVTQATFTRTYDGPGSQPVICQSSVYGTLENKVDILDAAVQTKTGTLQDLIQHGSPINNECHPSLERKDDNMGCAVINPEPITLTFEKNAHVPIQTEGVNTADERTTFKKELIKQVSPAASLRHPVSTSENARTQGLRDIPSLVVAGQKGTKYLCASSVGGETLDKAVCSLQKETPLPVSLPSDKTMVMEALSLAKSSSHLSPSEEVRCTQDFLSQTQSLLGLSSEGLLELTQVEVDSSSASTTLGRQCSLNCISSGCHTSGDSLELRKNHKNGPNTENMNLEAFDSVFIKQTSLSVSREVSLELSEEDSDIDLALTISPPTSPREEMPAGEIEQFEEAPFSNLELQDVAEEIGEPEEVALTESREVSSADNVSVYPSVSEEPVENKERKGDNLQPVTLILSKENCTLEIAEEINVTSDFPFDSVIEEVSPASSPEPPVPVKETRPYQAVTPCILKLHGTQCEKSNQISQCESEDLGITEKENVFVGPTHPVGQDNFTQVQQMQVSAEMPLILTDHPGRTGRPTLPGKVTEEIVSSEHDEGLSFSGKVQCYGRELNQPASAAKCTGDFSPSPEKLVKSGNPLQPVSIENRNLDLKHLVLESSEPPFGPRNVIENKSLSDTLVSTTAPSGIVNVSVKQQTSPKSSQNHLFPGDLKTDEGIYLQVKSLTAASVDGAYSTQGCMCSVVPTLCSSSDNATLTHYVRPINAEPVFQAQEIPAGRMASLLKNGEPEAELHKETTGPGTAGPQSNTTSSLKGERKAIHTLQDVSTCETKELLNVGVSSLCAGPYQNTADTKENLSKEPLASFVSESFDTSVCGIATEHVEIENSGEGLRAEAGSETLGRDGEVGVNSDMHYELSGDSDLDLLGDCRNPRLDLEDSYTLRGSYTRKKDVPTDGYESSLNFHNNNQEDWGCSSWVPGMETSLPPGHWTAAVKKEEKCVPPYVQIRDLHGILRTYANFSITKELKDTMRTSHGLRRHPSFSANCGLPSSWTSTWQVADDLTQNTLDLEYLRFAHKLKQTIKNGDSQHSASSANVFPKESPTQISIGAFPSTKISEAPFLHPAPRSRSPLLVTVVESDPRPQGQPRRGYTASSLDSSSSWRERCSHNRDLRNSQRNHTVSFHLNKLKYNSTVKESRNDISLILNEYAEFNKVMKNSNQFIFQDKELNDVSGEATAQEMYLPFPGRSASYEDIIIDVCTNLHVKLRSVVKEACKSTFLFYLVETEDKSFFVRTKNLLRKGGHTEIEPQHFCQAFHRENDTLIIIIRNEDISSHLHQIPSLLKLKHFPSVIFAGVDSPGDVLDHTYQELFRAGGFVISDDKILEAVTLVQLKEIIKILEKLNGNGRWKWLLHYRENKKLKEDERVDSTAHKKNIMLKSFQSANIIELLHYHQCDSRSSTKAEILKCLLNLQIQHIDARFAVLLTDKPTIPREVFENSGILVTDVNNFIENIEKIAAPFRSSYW
On to V94D, for which the “effect of a mutation on the interaction” value was “with no effect”.

In the next assay the parent is B11. The conditions noted are these: with pnma5_human PNMA5, Q96PV4.
Chain of pnma5_human PNMA5, Q96PV4 (Q96PV4 whole entry): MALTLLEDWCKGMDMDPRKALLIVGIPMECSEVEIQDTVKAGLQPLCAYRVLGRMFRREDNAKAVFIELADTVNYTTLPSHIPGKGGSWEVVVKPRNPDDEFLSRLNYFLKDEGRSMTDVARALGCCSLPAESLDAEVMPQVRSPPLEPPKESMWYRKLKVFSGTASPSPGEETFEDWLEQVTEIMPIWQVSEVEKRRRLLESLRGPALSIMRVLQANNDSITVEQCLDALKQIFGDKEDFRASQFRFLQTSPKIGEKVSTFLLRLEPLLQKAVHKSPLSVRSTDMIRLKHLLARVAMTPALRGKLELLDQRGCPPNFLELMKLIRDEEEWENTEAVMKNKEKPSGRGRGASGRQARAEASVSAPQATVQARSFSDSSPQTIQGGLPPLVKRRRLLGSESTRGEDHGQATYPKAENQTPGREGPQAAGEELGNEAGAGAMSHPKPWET
Consider V94D, for which the “effect of a mutation on the interaction” value is “with no effect”.

The next assay covers variants of B11. The conditions noted are these: with ms18b_human OIP5, O43482.
Chain of ms18b_human OIP5, O43482 (O43482 whole entry): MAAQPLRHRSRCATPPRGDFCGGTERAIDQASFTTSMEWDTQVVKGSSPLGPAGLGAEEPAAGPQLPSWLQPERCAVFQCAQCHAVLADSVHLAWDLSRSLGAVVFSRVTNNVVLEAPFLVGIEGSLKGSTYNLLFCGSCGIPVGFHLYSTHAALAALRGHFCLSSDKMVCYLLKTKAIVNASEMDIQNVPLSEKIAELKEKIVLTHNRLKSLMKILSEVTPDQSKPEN
As for V94D, the “effect of a mutation on the interaction” value is recorded as “disrupting interaction strength”.

A further assay covers variants of B11. Conditions: with cq050_human C17orf50, Q8WW18.
Chain of cq050_human C17orf50, Q8WW18 (Q8WW18 whole entry): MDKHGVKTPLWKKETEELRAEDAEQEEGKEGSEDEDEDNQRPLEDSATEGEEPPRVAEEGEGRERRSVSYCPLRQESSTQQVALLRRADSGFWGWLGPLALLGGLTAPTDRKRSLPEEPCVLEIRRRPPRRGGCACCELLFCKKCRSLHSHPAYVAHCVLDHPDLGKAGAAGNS
V94D: the “effect of a mutation on the interaction” value is on record as “disrupting interaction strength”.

The next assay covers variants of B11. Conditions: with mb3l1_human MBD3L1, Q8WWY6.
Chain of mb3l1_human MBD3L1, Q8WWY6 (Q8WWY6 whole entry): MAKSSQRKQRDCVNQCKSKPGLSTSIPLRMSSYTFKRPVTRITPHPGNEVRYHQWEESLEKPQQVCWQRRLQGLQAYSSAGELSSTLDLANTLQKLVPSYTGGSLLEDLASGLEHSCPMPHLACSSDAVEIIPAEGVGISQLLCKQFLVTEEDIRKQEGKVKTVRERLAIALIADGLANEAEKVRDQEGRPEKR
On to V94D, for which the “effect of a mutation on the interaction” value was “with no effect”.

Variants of B11 are the subject of another assay. The conditions noted are these: with PRR5, P85299-2.
Chain of PRR5, P85299-2 (P85299 other isoform, or with tags, fused parts or gaps): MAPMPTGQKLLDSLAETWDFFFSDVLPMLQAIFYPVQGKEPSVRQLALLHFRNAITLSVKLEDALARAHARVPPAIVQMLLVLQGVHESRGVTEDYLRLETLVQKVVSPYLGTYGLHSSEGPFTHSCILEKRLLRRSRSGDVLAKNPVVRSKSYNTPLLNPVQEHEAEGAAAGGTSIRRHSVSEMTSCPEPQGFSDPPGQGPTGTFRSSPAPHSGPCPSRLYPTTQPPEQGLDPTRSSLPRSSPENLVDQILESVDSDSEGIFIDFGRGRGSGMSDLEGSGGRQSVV
In the case of V94D, the “effect of a mutation on the interaction” value is recorded as “disrupting interaction strength”.

The variants in another assay derive from B11. Conditions: with cenps_human CENPS.
Regarding V94D, the “effect of a mutation on the interaction” value is recorded as “disrupting interaction strength”.

Variants of B11 are the subject of the next assay. Conditions: with zn552_human ZNF552, Q9H707.
Chain of zn552_human ZNF552, Q9H707 (Q9H707 whole entry): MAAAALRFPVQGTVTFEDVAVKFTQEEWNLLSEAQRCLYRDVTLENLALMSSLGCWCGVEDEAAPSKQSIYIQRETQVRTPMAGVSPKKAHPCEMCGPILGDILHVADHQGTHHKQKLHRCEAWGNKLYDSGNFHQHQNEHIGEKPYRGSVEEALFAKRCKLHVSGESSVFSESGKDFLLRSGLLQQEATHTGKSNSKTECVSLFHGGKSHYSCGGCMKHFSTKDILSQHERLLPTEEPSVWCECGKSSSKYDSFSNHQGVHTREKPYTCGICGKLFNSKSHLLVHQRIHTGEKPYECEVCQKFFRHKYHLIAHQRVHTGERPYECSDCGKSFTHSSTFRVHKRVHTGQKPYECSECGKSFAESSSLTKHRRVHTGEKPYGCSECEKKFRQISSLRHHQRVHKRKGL
Consider V94D, for which the “effect of a mutation on the interaction” value is listed as “disrupting interaction strength”.
